Test results: the supplement of paper PMC10567573

B1: TRIM15 (parent)
chain: LLARLRELEQQIWKERDEYITKVS
B2: PRIM1 (parent)
chain: CCSSADICPKCWTLMTMAIRIIDR

Variants of: B1
Assay: protein stability index of a GFP-peptide fusion (GPS, HEK-293T) (PSI 1-6); higher = more stable
Settings: c terminus: a fixed tail appended
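Note: lentivirally expressed fusions sorted by FACS into six bins by GFP to DsRed ratio, PSI derived from sequencing read proportions per bin multiplied by bin number.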

Protein stability index, by site and new letter:
V23: N 1.64 | F 1.69 | I 1.86 | Q 1.71 | A 1.5 | H 1.86 | L 2 | C 2.1 | Y 2.4 | S 2.25 | W 1.7 | D 3.9 | T 1.63 | M 2.03 | P 1.26 | R 1.57
D17: T 2.08 | Y 3.07
K22: V 1.97 | G 2.25 | W 2.06 | Y 1.9 | C 1.94 | D 1.97 | F 1.72 | A 2.38 | I 1.78 | P 1.23 | N 1.38 | T 1.43 | R 2.46
T21: Y 2.02 | L 2.39 | D 1.32 | P 2.59 | A 2.07 | W 2.63 | I 2.45 | K 1.48 | H 1.49 | N 1.7 | Q 2.41
I20: F 3.15 | D 2.11 | S 2.18 | L 1.33 | K 2.1 | G 2.17 | R 2.91 | A 1.3 | E 4.11 | M 1.71 | C 1.08 | N 1.63 | H 2.12 | Y 3.1 | P 1.6 | Q 2.09
Y19: D 2.12 | Q 2.13 | M 2.21 | N 1.91 | P 1.55 | T 1.67 | S 1.71 | W 2.07 | E 1.39 | L 1.98
S24: H 2.29 | C 2.05 | I 2.42 | T 1.31 | A 1.63 | L 1.95 | E 1.38 | R 1.93 | P 1.82 | F 1.51 | V 3 | M 2.12 | D 3.02 | Y 2.94 | N 1.52 | K 1.44
E18: N 2.08 | Q 1.18 | G 1.81 | M 2.33

Variants of: B2
Assay: as above
Settings: c terminus: a fixed tail appended

Protein stability index: each site, then its substitutions
T13: A 2.63 | M 1.59 | I 2.13 | Q 2.18 | F 1.53 | L 1.49 | G 1.91 | K 2.46 | N 1.38 | C 2.04
W12: D 1.71 | H 2.19 | T 1.88 | M 2.02 | C 1.83 | Q 2.75 | N 1.83 | Y 2.48 | A 2.29 | L 1.56 | E 2.05 | P 1.48 | S 2.23 | I 1.83 | R 2.56 | K 2.64 | F 1.69 | G 2.2
M17: H 2.38 | T 2.09 | K 2.56 | L 1.74 | I 1.94 | R 1.7 | S 2.95 | G 1.96 | P 2.29 | W 2.19
M15: W 1.98 | R 2.35 | I 2.87 | Y 1.63 | F 1.47 | E 2.01 | Q 1.95 | D 2.03 | A 2.96
I19: T 2.98 | A 1.93 | W 1.83 | D 2.92 | E 2.48 | L 2.12 | Q 1.81 | G 2.21 | K 2.77 | P 2.8 | M 2.33
D6: V 1.47 | C 1.62 | K 2.14 | F 2.11 | M 2.15 | W 2.91 | R 1.51 | E 2.22 | A 1.7
K10: F 1.95 | Q 1.98 | L 2.14 | N 1.81 | M 1.92 | Y 1.85 | R 2.3 | D 3.36 | T 2.71 | E 1.56
I21: A 2.2 | R 2.75 | P 2.28 | F 1.39 | C 1.94 | Y 1.73 | N 2.46 | K 2.35 | M 1.89 | W 1.9 | Q 2.05 | L 1.49
R24: M 2.12 | K 1.25 | N 1.8 | L 1.91 | G 1.81 | F 1.68 | T 1.97 | C 2.19 | V 2.46 | P 3.32 | A 1.89 | W 2.19 | I 1.69
P9: G 1.9 | R 1.73 | F 1.59 | W 1.35 | D 1.64 | Y 1.55 | V 2.27 | E 1.33 | M 1.86
C8: I 3.3 | N 2.83 | K 2.95 | V 2.88
L14: W 2.62 | M 1.55 | K 2 | P 2.27 | T 2.89 | G 1.27 | A 2.21 | V 1.8 | S 2.39 | H 1.6 | Q 1.9 | F 2.06
D23: P 2.42 | N 1.47 | V 2.31 | M 1.64 | F 1.78 | C 2.19 | I 1.84 | L 2.25 | E 1.94
S3: A 1.82 | R 1.9 | Q 2.08 | Y 2.43 | K 1.45 | P 1.28 | M 2.7 | H 2.16 | W 1.42 | L 2.32
I22: V 2.34 | F 1.59 | G 2.44 | Y 2.09 | R 2.5 | T 2.97 | H 1.9 | E 2.57
C1: H 1.87 | Y 1.37 | S 1.79 | R 2.01 | F 1.5 | G 1.88 | E 1.6 | K 1.61 | D 2.01 | T 2.12 | P 1.78 | W 2.25 | Q 1.85
I7: H 1.91 | T 1.77 | G 1.98 | Q 2.05 | R 1.85 | V 1.88 | S 1.72 | P 2.07 | C 1.94 | D 2.35 | A 1.87
A18: D 2.39 | R 1.94 | I 1.79 | P 2.1 | E 1.45 | G 2.06 | Q 2.71 | Y 1.34 | L 2.3 | M 1.24 | W 2.92
R20: K 1.19 | L 1.77 | Y 1.91 | C 1.96 | F 1.46 | A 1.93 | Q 3.56 | E 1.83 | V 1.96 | W 1.65 | I 1.33 | N 2.18 | D 1.5
T16: A 2.23 | E 1.48 | M 1.52 | K 1.61 | Q 2.54 | N 2.37 | S 1.49 | F 2.12 | C 1.61 | H 2.04 | D 2.07
C2: F 1.83 | I 1.74 | E 1.83 | G 1.6 | A 2.49 | N 2.03 | L 2.55 | K 1.45 | S 1.96 | D 2.41
S4: K 2.2 | W 1.51 | A 1.87 | Y 1.91 | H 1.72 | R 2.42 | P 1.67 | L 2.24 | C 2.72
A5: L 1.15 | P 1.62 | G 1.7 | K 1.93 | Y 3.67 | V 1.64 | H 1.71 | F 2.5 | I 1.33
C11: I 2.4 | D 3.13 | T 1.76 | H 2.43 | F 2.58
